We go through ten molecules from patent US20230035659A1, “Compositions and Methods for TTR Gene Editing and Treating ATTR Amyloidosis Comprising a Corticosteroid or Use Thereof” (Intellia Therapeutics, Inc., priority 2019, published 2023).

Strand notation (5' to 3'): a small letter for the sugar, then the base; units joined by * are phosphorothioate-linked, units joined directly phosphodiester-linked; [ ] holds rarer units or linkages, { } end groups; capitals alone tell only the bases. m = 2'-O-methyl; r = 2'-OH (RNA)

First the molecules themselves.
B1: G000497: TTR sgRNA modified sequence, Human, SEQ ID NO: 104; guide sequence of CR003335 (nucleic acid)
guide: mC*mU*mG*rCrUrCrCrUrCrCrUrCrUrGrCrCrUrUrGrCrGrUrUrUrUrArGrAmGmCmUmAmGmAmAmAmUmAmGmCrArArGrUrUrArArArArUrArArGrGrCrUrArGrUrCrCrGrUrUrArUrCrAmAmCmUmUmGmAmAmAmAmAmGmUmGmGmCmAmCmCmGmAmGmUmCmGmGmUmGmCmU*mU*mU*mU
B2: G000498: TTR sgRNA modified sequence, Human, SEQ ID NO: 105; guide sequence of CR003359 (nucleic acid)
guide: mA*mG*mU*rGrArGrUrCrUrGrGrArGrArGrCrUrGrCrArGrUrUrUrUrArGrAmGmCmUmAmGmAmAmAmUmAmGmCrArArGrUrUrArArArArUrArArGrGrCrUrArGrUrCrCrGrUrUrArUrCrAmAmCmUmUmGmAmAmAmAmAmGmUmGmGmCmAmCmCmGmAmGmUmCmGmGmUmGmCmU*mU*mU*mU
B3: G000487: TTR sgRNA modified sequence, Human, SEQ ID NO: 94; guide sequence of CR003357 (nucleic acid)
guide: mU*mU*mC*rUrUrUrGrGrCrArArCrUrUrArCrCrCrArGrGrUrUrUrUrArGrAmGmCmUmAmGmAmAmAmUmAmGmCrArArGrUrUrArArArArUrArArGrGrCrUrArGrUrCrCrGrUrUrArUrCrAmAmCmUmUmGmAmAmAmAmAmGmUmGmGmCmAmCmCmGmAmGmUmCmGmGmUmGmCmU*mU*mU*mU
B4: G000501: TTR sgRNA modified sequence, Human, SEQ ID NO: 108; guide sequence of CR005300 (nucleic acid)
guide: mU*mC*mA*rCrArGrArArArCrArCrUrCrArCrCrGrUrArGrUrUrUrUrArGrAmGmCmUmAmGmAmAmAmUmAmGmCrArArGrUrUrArArArArUrArArGrGrCrUrArGrUrCrCrGrUrUrArUrCrAmAmCmUmUmGmAmAmAmAmAmGmUmGmGmCmAmCmCmGmAmGmUmCmGmGmUmGmCmU*mU*mU*mU
B5: G000495: TTR sgRNA modified sequence, Human, SEQ ID NO: 102; guide sequence of CR003343 (nucleic acid)
guide: mC*mA*mG*rArGrGrArCrArCrUrUrGrGrArUrUrCrArCrGrUrUrUrUrArGrAmGmCmUmAmGmAmAmAmUmAmGmCrArArGrUrUrArArArArUrArArGrGrCrUrArGrUrCrCrGrUrUrArUrCrAmAmCmUmUmGmAmAmAmAmAmGmUmGmGmCmAmCmCmGmAmGmUmCmGmGmUmGmCmU*mU*mU*mU
B6: G000496: TTR sgRNA modified sequence, Human, SEQ ID NO: 103; guide sequence of CR005304 (nucleic acid)
guide: mG*mG*mC*rCrGrUrGrCrArUrGrUrGrUrUrCrArGrArArGrUrUrUrUrArGrAmGmCmUmAmGmAmAmAmUmAmGmCrArArGrUrUrArArArArUrArArGrGrCrUrArGrUrCrCrGrUrUrArUrCrAmAmCmUmUmGmAmAmAmAmAmGmUmGmGmCmAmCmCmGmAmGmUmCmGmGmUmGmCmU*mU*mU*mU
B7: G000492: TTR sgRNA modified sequence, Human, SEQ ID NO: 99; guide sequence of CR003342 (nucleic acid)
guide: mC*mU*mU*rCrUrCrUrArCrArCrCrCrArGrGrGrCrArCrGrUrUrUrUrArGrAmGmCmUmAmGmAmAmAmUmAmGmCrArArGrUrUrArArArArUrArArGrGrCrUrArGrUrCrCrGrUrUrArUrCrAmAmCmUmUmGmAmAmAmAmAmGmUmGmGmCmAmCmCmGmAmGmUmCmGmGmUmGmCmU*mU*mU*mU
B8: G000491: TTR sgRNA modified sequence, Human, SEQ ID NO: 98; guide sequence of CR003338 (nucleic acid)
guide: mA*mU*mA*rCrCrArGrUrCrCrArGrCrArArGrGrCrArGrGrUrUrUrUrArGrAmGmCmUmAmGmAmAmAmUmAmGmCrArArGrUrUrArArArArUrArArGrGrCrUrArGrUrCrCrGrUrUrArUrCrAmAmCmUmUmGmAmAmAmAmAmGmUmGmGmCmAmCmCmGmAmGmUmCmGmGmUmGmCmU*mU*mU*mU
B9: G000485: TTR sgRNA modified sequence, Human, SEQ ID NO: 92; guide sequence of CR003336 (nucleic acid)
guide: mC*mC*mU*rCrCrUrCrUrGrCrCrUrUrGrCrUrGrGrArCrGrUrUrUrUrArGrAmGmCmUmAmGmAmAmAmUmAmGmCrArArGrUrUrArArArArUrArArGrGrCrUrArGrUrCrCrGrUrUrArUrCrAmAmCmUmUmGmAmAmAmAmAmGmUmGmGmCmAmCmCmGmAmGmUmCmGmGmUmGmCmU*mU*mU*mU
B10: G000503: TTR Cyno specific sgRNA modified sequence, SEQ ID NO: 115; guide sequence of CR005372 (nucleic acid)
guide: mA*mA*mA*rArGrGrCrUrGrCrUrGrArUrGrArGrArCrCrGrUrUrUrUrArGrAmGmCmUmAmGmAmAmAmUmAmGmCrArArGrUrUrArArArArUrArArGrGrCrUrArGrUrCrCrGrUrUrArUrCrAmAmCmUmUmGmAmAmAmAmAmGmUmGmGmCmAmCmCmGmAmGmUmCmGmGmUmGmCmU*mU*mU*mU

The first data set concerns TTR. Kind of data set: TTR editing in primary human hepatocytes treated with LNP formulated Spy Cas9 mRNA (SEQ ID NO: 2) and sgRNAs, 12.5 ng mRNA. It counts as cell-based. Conditions: LNP formulated Spy Cas9 mRNA (SEQ ID NO: 2) and sgRNA, 12.5 ng mRNA, 3.9 nM sgRNA, 72 hours. The procedure: (§1) Primary liver hepatocytes. Primary human liver hepatocytes (PHH) and primary cynomolgus liver hepatocytes (PCH) (Gibco) were cultured per the manufacturer's protocol (Invitrogen, protocol 11.28.2012). In brief, the cells were thawed and resuspended in hepatocyte thawing medium with supplements (Gibco, Cat. CM7000) followed by centrifugation at 100 g for 10 minutes for human and 80 g for 4 minutes for cyno. The supernatant was discarded and the pelleted cells resuspended in hepatocyte plating medium plus supplement pack (Invitrogen, Cat. A1217601 and CM3000). Cells were counted and plated on Bio-coat collagen I coated 96-well plates (ThermoFisher, Cat. 877272) at a density of 33,000 cells/well for human or 60,000 cells/well for cyno (or 65,000 cells/well when assaying effects on TTR protein, described further below). Plated cells were allowed to settle and adhere for 6 or 24 hours in a tissue culture incubator at 37° C. and 5% CO2 atmosphere. After incubation cells were checked for monolayer formation and media was replaced with hepatocyte culture medium with serum-free supplement pack (Invitrogen, Cat. A1217601 and CM4000).
In general, the lipid nanoparticle components were dissolved in 100% ethanol with the lipid component of various molar ratios. The RNA cargos were dissolved in 25 mM citrate, 100 mM NaCl, pH 5.0, resulting in a concentration of RNA cargo of approximately 0.45 mg/mL. The LNPs were formulated with a lipid amine to RNA phosphate (N:P) molar ratio of about 4.5 or about 6, with the ratio of mRNA to gRNA at 1:1 by weight.
The LNPs were formed by microfluidic mixing of the lipid and RNA solutions using a Precision Nanosystems NanoAssemblr™ Benchtop Instrument, according to the manufacturer's protocol. A 2:1 ratio of aqueous to organic solvent was maintained during mixing using differential flow rates. After mixing, the LNPs were collected, diluted in water (approximately 1:1 v/v), held for 1 hour at room temperature, and further diluted with water (approximately 1:1 v/v) before final buffer exchange. The final buffer exchange into 50 mM Tris, 45 mM NaCl, 5% (w/v) sucrose, pH 7.5 (TSS) was completed with PD-10 desalting columns (GE). If required, formulations were concentrated by centrifugation with Amicon 100 kDa centrifugal filters (Millipore). The resulting mixture was then filtered using a 0.2 μm sterile filter. The final LNP was stored at −80° C. until further use.
(§2) Additional PCR was performed per the manufacturer's protocols (Illumina) to add chemistry for sequencing. The amplicons were sequenced on an Illumina MiSeq instrument. The reads were aligned to a reference genome (e.g., the human reference genome (hg38), the cynomologus reference genome (mf5), the rat reference genome (rn6), or the mouse reference genome (mm10)) after eliminating those having low quality scores. The resulting files containing the reads were mapped to the reference genome (BAM files), where reads that overlapped the target region of interest were selected and the number of wild type reads versus the number of reads which contain an insertion, substitution, or deletion was calculated.
(§3) The editing percentage (e.g., the “editing efficiency” or “percent editing” or “indel frequency”) is defined as the total number of sequence reads with insertions/deletions (“indels”) or substitutions over the total number of sequence reads, including wild type.
Lipid nanoparticle formulations of modified sgRNAs targeting human TTR and the cyno matched sgRNA sequences were tested on primary human hepatocytes and primary cyno hepatocytes in a dose response curve. Primary human and cyno hepatocytes were plated as described in Example 1. Both cell lines were incubated at 37° C., 5% CO2 for 24 hours prior to treatment with LNPs. The LNPs used in the experiments detailed in Tables 18-21 were prepared using the Nanoassemblr™ procedure, each containing the specified sgRNA and Cas9 mRNA (SEQ ID NO:2), each having Lipid. […]
Regarding B1, the “12.5 ng mRNA, 3.9 nM sgRNA, Avg % Edit” value worked out at 15.10%.
The same measure, in the same setting: to B2 belongs 24.43%.
As to B3, the “12.5 ng mRNA, 3.9 nM sgRNA, Avg % Edit” value amounted to 17.37%.
The same measure, in the same setting: to B4 belongs 32.30%; to B5, 23.97%.
The same measure, in the same setting: to B6 belongs 30.73%.
The same measure, in the same setting: to B7 belongs 15.87%.
Consider B8, for which the “12.5 ng mRNA, 3.9 nM sgRNA, Avg % Edit” value stood at 31.60%.
Same read-out and setting: to B9 belongs 14.23%.

The next data set has as its system TTR. Kind of data set: TTR editing dose response (EC50, maximum editing) in primary cyno hepatocytes treated with LNP formulated U-depleted Spy Cas9 mRNA and sgRNAs. It counts as cell-based, cynomolgus monkey. The settings on record: LNP formulated U-depleted Spy Cas9 mRNA and cyno specific sgRNAs. The procedure: as §1
For LNPs prepared using the cross-flow technique, the LNPs were formed by impinging jet mixing of the lipid in ethanol with two volumes of RNA solutions and one volume of water. The lipid in ethanol is mixed through a mixing cross with the two volumes of RNA solution. A fourth stream of water is mixed with the outlet stream of the cross through an inline tee. (See WO2016010840 FIG. 2.) The LNPs were held for 1 hour at room temperature, and further diluted with water (approximately 1:1 v/v). Diluted LNPs were concentrated using tangential flow filtration on a flat sheet cartridge (Sartorius, 100 kD MWCO) and then buffer exchanged by diafiltration into 50 mM Tris, 45 mM NaCl, 5% (w/v) sucrose, pH 7.5 (TSS). Alternatively, the final buffer exchange into TSS was completed with PD-10 desalting columns (GE). If required, formulations were concentrated by centrifugation with Amicon 100 kDa centrifugal filters (Millipore). The resulting mixture was then filtered using a 0.2 μm sterile filter. The final LNP was stored at 4° C. or −80° C. until further use.
as §2, §3
Lipid nanoparticle formulations of modified sgRNAs targeting human TTR and the cyno matched sgRNA sequences were tested on primary human hepatocytes and primary cyno hepatocytes in a dose response curve. Primary human and cyno hepatocytes were plated as described in Example 1. Both cell lines were incubated at 37° C., 5% CO2 for 24 hours prior to treatment with LNPs. The LNPs used in the experiments detailed in Tables 20-22 were prepared using the cross-flow procedure described above but purified using PD-10 columns (GE Healthcare Life Sciences) and concentrated using Amicon centrifugal filter units (Millipore Sigma), each containing the specified sgRNA and Cas9 mRNA (SEQ ID NO:1). […] LNPs were incubated in hepatocyte maintenance media containing 6% cyno serum at 37° C., 5% CO2 for 5 minutes. […]
On to B10, for which the “Max Editing” value came to 83.41%.

A further data set deals with potential off-target genomic sites. Kind of data set: Off-target analysis by oligo insertion based assay in primary human hepatocytes (sgRNAs). It counts as cell-based. Conditions: 100 ng Cas9 mRNA, 25 nM sgRNA, 12.5 nM donor oligo, 48 h. The protocol:
Off-target analysis of sgRNAs targeting TTR was performed in primary human hepatocytes (PHH) as described in Example 5, with the following modifications. PHH were plated at a density of 33,000 cells per well on collagen-coated 96-well plates as described in Example 1. Twenty-four hours post plating, cells were washed with media and transfected using Lipofectamine RNAiMAX (ThermoFisher, Cat. 13778150) as described in Example 1. Cells were transfected with a lipoplex containing 100 ng Cas9 mRNA, immediately followed by the addition of another lipoplex containing 25 nM of the sgRNA and 12.5 nM of the donor oligo (0.3 μL/well). Cells were lysed 48 hours post-transfection and gDNA was extracted and analyzed as further described in Example 5. The data is graphically represented in FIG. 20.
Fewer sites were detected in PHH for every guide tested as compared to the HekCas9 cell line, with no unique sites detected in PHH alone.
Consider B1, for which the “# Sites in PHH (off-target integration sites detected)” value (“# Sites in PHH” for short) was determined as 3.
For B2, the “# Sites in PHH” value is given as 19.
Still for that read-out and setting: to B3 belongs 0; to B4, 0; to B5, 1.
As for B6, the “# Sites in PHH” value is reported as 0.
On to B7, for which the “# Sites in PHH” value came out at 5.
The same measure, in the same setting: to B8 belongs 7; to B9, 3.
